# In a protein production outcome set (Wang et al. 2014):
# Assay: label from the status in PepcDB records
# 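Further: failed if final PepcDB status was selected cloned or expressed and not failed if soluble or beyond.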
row,Sequence,protein production
1,MSVSIILMGLFVGALVGLTGVGGAALLTPLLIVLGINPSIAVGTDLVYNSITKLFGVASHWRQKTINFKLVKYLAIGSIPSASLAIGILHLFPAFHQHQEEIIKHALGYVLTLVAISIIVRLFLDRKLRPNRWQLMPLENKRALTILIGVVFGFIVGLTSIGSGSLFAIAMIYLFNMKASQIVGTDIAHAFLLVTAAGILNASFGSVDYMLAANLLLGSIPGVLIGSHLSPRFSPRPLQFIMASIILVSGLKLI,failed
2,MSVSVRSYLSPTLVLLAFDWPDAQRRDDFLGFAIKRTPGFWSADGKTRAATSWLPNRLTFDGPAAHTQGDAPTDQAPIQKFMWWDARIDPPDRGRAFRYDVYPVVGTPASLRVLEADAGGCTVTLPAHVEGGVGTWFNRAVVSSQAFAKQVRALRLADGAAPSPDAARRLRTWLANDLEETFGLMLGADARRAVSAVYHLTDPLWAIPAFDAFGRAHGADALAIVYDAHETKRGSGEPPLPSPNQAAVEQLTGVATLAPRDKTRIMHDKFIVAGDEAGPARVLTGSANFTTEGITEQANVLHTFESAALAGLYNACARALASNPCVAETARLAPGWSEPVEVGTARVRVSFSPEPRGARTQIDTIVDAIRGARHSVVFCLFMPTDAALRDACFAAGDRGLMMFGLVNAISARGAQQADADRRDGKTLDAARLANLELYHRSRSNRDVIDAAYFSPATVPAGFEAELRLFPGEAPPPYPPVVVHHKFIVIDAEGANPIVYSGSANMSANSEHYNDENLLEIRDARVAGIYLAEFLRLYEHYRARALAIASRRGNGSGAGGAAGPHGGLALQPDSRWAKKYFVDASPEEKARIALAAPVAAR,failed
3,MSWLIHAGEGRQYQVAPPVSWSQSYAEARMTDIQRLDDQTVERIAAGEVVERPASVVKELVENAIDADASRVDVVVEAGGTDGIRVTDDGIGMDREAVKTAVEEHTTSKIRDIADLEGGVGTLGFRGEALHAIGAVSRLTIRTRPRGGDVGTELVLEGGDVTSVSPAGCPEGTTMAVEDLFYNVPARRKYLKQESTEFAHVNTVVASYALANPDVAVSLTHGDRETFSTTGQGDLRETVMSVYGREVAESMISVGAGSEATGSGDEMDSFPDGPLDGVHGLVSHPETNRAGREYLSTYVNGRYVRAGTVRDAVIDAYGTQIAPDRYPFAVLFLDVPAGDVDVNVHPRKMEVRFADDEGVREQVRTAVEDALLREGLLRSTAPRGRSAPEQTEITPESDGATDSGGERAAPNGRDAIDDATTSGQTDTTATENSAEAPAQEPDTAPTARPDGTQTETGNCESSDTAPSIQSADTKPSSETGRTDGTSGESGTGQTGGSVSGGDSDSERPGASATGQTAAERGERKFTGGQEQARLGDDPEATHESLPSMRILGQLADTYVVAETDDGLVLVDQHAADERVNYERLKAKFEGETTTQALANPVELGLTAREAEVFDRRSDALASLGFHTARTGERSVEVRTLPGVIADAAGPDIVRDVLGAFVAGDDEAAATVEAAADELLGDLACYPSVTGNTSLTEGSVRELLAALDDCENPYACPHGRPTVIHIDRQELEDRFERDYPGHGGRRR,failed
4,MSYAKEMLDAIEAGQMETAKQLFTQVLAHDDDETQYNLAEELYALGFNGQAKRLYQGLLGRYPDQGDLATALADIAVSDGDTDAALNYLSRIQPGDPAYVQSLVSAADVYQTLGLYEVSEQKLLEAKRLAPDEPVVTFALGEFYFDWGHFAEAISAYNELLAAGTTELAGVNIEARLAASLAQTGQYEDAVAAYEDVGVDALDLNGRFELGGLYLQLDDPAKAITNLQAVIDSDPSYANAYLPLARAYEAQNQPDKALDTVQAGVMVDDTNPTLYALGGKLALSEDNVKLAETYLQKALAIDPEDQGNMLAWSNFLVQEERDQENVDFLDQIDRSGDVDPQIYWNMAKSYDRLENIKKARENYLLAFNRFQDSPDFLHDIIDFFQSTGARAELKAALVRYLKLVPTDDEMQARLDELNAETDLEHHHHHH,not failed
5,MSYEAIMLERNGAVGVLTFNRPEVLNAYNRTLAADIITGFNELVADKSVRAIVLTGAGKAFMAGADINMVNGWTKLGNAAKIKEDLRQLVNPNMIEDCPKPTIAAVNGLAFGMGCELAMACDFRIAAEKAQFGQPEVKLGIIPGAGGSQRLRELVGPTRALEMISTGDPIDAQEAYRIGLVNQVVPRDELMEAVNAFAGRLIDKGAVVLDICKKLVYEGGDLPLRGGIDYEQDQFCKILLTADAQEGTLAFLEKRKPVFNKG,failed
6,MSYKVLPLSEVMSHEFGLIEGNFHNISEADIASAIPSHLTFEQLKQHLYEGNLALVSDTPQTPALLSYNDPIGPKTWRLNSEVISELSDDAANNLLAITKTTRATGGYRSCIGETSTLERVYTPQPIATESEEEITKEFEYSFEVGCSDATIKKMVHSDFALAKTEKENAVTRWEQTNTEQGTRYTALCVFDEPKRLNIHIADDNLGLTPLEAVTLQKAGSCKTDEGFIPVVPAVRLGERLGLPTEGYYYHFNDGELVQEYKILGEEKWAFYATQSTQDKLNDERGFTKDQSAILVYWKLADQIIENQYIIYLERQITREELDNLSEDWLCENGIKLDIPALFDAVKQPEEARSEGNNDETQAEQTAATHTVTVGEDWQSIAELYGMGAKALLLLNPVFEADPLSLAVGDEIIVAEKQQQQAPDKKNTFPPLRPQTYNNIRNSHYQHSDPLLGLTKYRAINTADCIEGDVVILNLKDATSSIVFAKSCTRPEGCIEIGDQQESISNFGPWSFFFAQANANPAAVIPAIQATQAQMAMGSSAAVAGSPEQMQQTQTAAMQLDKLAGTLKEKIVEGYRWQVEGIGALFAMQQSLFGDNTQYTDQDLRQVTTAQSRVRVHITEPQGGEFYPHVQGYHVDDTRIPIKYVKQGNNGQLSVAIEENGPTIYWTPEENGEASWQTTPDHSDGFEKDDILVTPIHSDSDANVTVTPAPEEKDWRDAILVFPESSGIAPLYVVYKESPRDKPGVVTGKGEDIFGIWLADAGKDLGAPIPSQIADKLRGREFSSFDAFREGFWYAVGEDQTLINQFSRANQRLIKRGRSPFSLPSEQVGGRQRYELHHKEEIQYGGEVFHVDNLCVLTPKRHISIHKDQ,failed
7,MSYLDTATDLPNQTLFLEYLNIALSNARRHHAQVGVLLCQINNWSDLKRKRGDAVANAFLQEAGQKLKSNLRNGDIVSRWDKDEFIFLVSKVQDTSSLLGIAQRLMKPVLAPVTAGGRPFQPEITYGVALYPVDGEQVNDLIGHIRENLQQLLPQPTNPGSGLEHHHHHH,not failed
8,MSYNFEEERVIKEIREKNAKRVLLQFPEGLKYFSIDIVKKLREKLPNVNFIISGEPSWGACDIAEDEAQQVNADLIIHFGHTPYTWYYPKFPTIFINAESNLDISENALHSLENDISKYNGRKISLTATLQHVRLLSKIKSFLEDKGYDIVIGKPSNRFMFDGQVLGCDYKAAEVEADIYVIVSGGLFHALGLGLATNKPTIKLDPYLQKSEDITNDVRKILKVRYGKILQALDKRSWVIIQGVKVGQNRPNMIKYFYDKLTEKGYDVFTVTNKVLTLDILRNLDRNYIDVFLVTSCPRLPIDDLYNYEKPVLTPGEAKMIINNSLEPYIFPW,failed
9,MSYSKEVNRYVFPLVATNLVQVLIGQISLHFAVDNSNAALSGISVIQNFLFAFGGILGAFSLSFNIRGAKAFYNKEYQRFKNLLKSSLLIDIGIGLSFILFCLGLSRPFLKVFYGFDGQLLELSTTYFKIMSPYILLTLLIFLFSNLLKIEKKTKPIFWIGTLSSVLDVLLNYYLVPLLGIRGAAISSILSLLVIVLGYFIFVKSLVFQALQEASTSKLELIRFGIPLSIQEILESVLFIMAFDAFMGRQGLRILSIYAVVSQLFAIVRTPAFMYAGSIAIFLPEARKKEDEKALIATIFRNSYAVIFIFACLVTVFSNPFAHFLSDEVIDNVLPFTLYTVVVMGATPLYESSKMLLQSNDDEQWVLKITSIVNILSILILLVLQLMGKQTYQSLYGIYGLSLIVLSILFIKRNSEKRVSSRKMTM,failed
10,MTAASFAQILLLLGTTALVVAVFQWLRVPSSLAYLVVGVLLGPHTGGPVIENPEIHGAAEFGIVFLMFTIGLNLSLPQVHALRHLVLGLGTGQVVLTTLVVGAAAFAFGLSPEAAFVVGAVFAQSSTAIIGKQLAEQGEEYSRHGRLAVAMSVFQDVTAVPLIVVVPVLAVPSLRVLGESLAWALAKAVLAFVLVFFAGRWLLRPLFHAVASRRSAELFTLTVLLVSLGAGGLTYQLGLSVAFGAFLVGMMLGETEFRHQVESTIRPFRDVLLGLFFVSIGMLFDPSLMEGTWQWALGGAFVLLAAKTVLVAVLVRATGIDLATAWRVGLLVAVGGEFGFALLAIALDAGVISQLTGQIVLMAVLLSMITAPFLIRYNRVLVEGWFRPPPGEEGALSAGPGVAGSPHDHVIICGYGRIGQNIGRFLEEERIPYVALDLDPQRVKEARIACEPVYYGDSSERDMLEAVGIGKARLVVVSHEDLAAAHKVLHHAAALRPGLPVMVRTRDESHVEELRRAGAAEVVPETLEAGLMIASQALLLLNVPLSRVARRIREQRLNRYLLLREFFRGDETFSDDVQSQDGDRLRAVPLPPGCRVAGCTLAELALENVVVTALVRHGVRELAPAPETRLAEGDAVVLFGAVSDLDKAERRLLG,failed
11,MTAEILVFSLIIPLVVAFILPALKPKAATWLSAISFLIPMFVTLGFLLTTKETIEVPIMSLPAPVGEFYLLADPISNAFGFTICLVSAMVAFYSLPYMKHRFEEMLHDGEIRSIEWEFRKYWFLYNLYAVAMLWLVYAGNFILLYIFLEISLLASFLLIYMYGYGNRQWVAVLYFVWTHIAGVLALLGILIIGFENSTMAFNAVKAVGFTAWLLIFLGMLVKLPGLGPHIWLPWAHAEAPTPVSALLSPLTVGLAGYVLLRVYMIDSSFIDQYRDIIIAYAIVSSIYAGFSVFKQKDYKRLLAYSTVSQMGYVLIALCLGSYGLLGVVIQYISHAFGKSILFMTAGAIIASFHGLRDINRMSGMHEYVPTIANAALLGFMTLSGILTIGMFGEFYILAGLTTIYGFNLAVILAVVVVFIISGLYSFYTMKVIYYGTPAGYEKPKVSRLLDVPLYVVAFFSVAFIFPPLSTALLSGLKVVLGIGGVMP,failed
12,MTAGGPLITAALTAYDAEDTIAGALASALAQDWPSLEVLILDDASRDGTRKVIEAVITERGDQGPPIRLIALDKNGGVAQARNRLLAEAKGEVIAFFDDDDISAPDRLRRQYARLIAAERETGAGLVFCHAARCQILPDGGERLEGTMGEEGGPIPGGDAVVRRILLGTLSPGVRGSCATCSQMARTASYRALGGFDPTLRRAEDTDLCLRAALGGAVFAGLSAPLVTQRLTLGGDKTPREDHRAYQALLNKHRATLAKTGWLTFYARWQDIRLAHLEGRTGRVVLGLVGLGLSHPLKLARKIVWSLPAAGTRAAYHRQHRKDTS,failed
13,MTAGLSAVVVGADRLGNIPDLLKGHNISITHHISGRDPSHQKKTLQLPSGTQLVILLTDFLGHNVMKTFRHAAQRGGIRVVACRRSVCSMQQALHQCGLCARSLEHHHHHH,not failed
14,MTAHFRPAVYDLPRDGHTVFRWEHPPQQATVELERLQRKQSLAAAFRVFARLGFDMGGAGHITVRDPGRPDHFWVNPVGVYFGHVRVRDLLLVNPEGAVIEGEGALNLAAFAIHAALHEAHPEVVAAAHAHSLYGKAWSSLGRLLDPLTQDACAFYERHGLFDNFSGVVLEASEGVRIAAALAGRKALILQNHGLLTVGETVEAAVWRFIAMDNAAQTQLLAEAAGTPRPIPHEVARHTARQVGTEFGGWFSFQPYRERIVREEPDFLDLEHHHHHH,failed
15,MTAHWRYLNSLQPLSNLFIQAALRRKVTGTQLPDLGLRSWIAVDNDKLEAYRKVCGFADSSLLPPTYPHALAFTLQMQLMTSPEFPFPLLGLIHLGNQIRTLRPLGGVSQLYISVQATDLRPHPKGATFTLLTQAEDGMGLLWEEESTLLCTAVHLEDAPVPMPEAYLRPLIELDRWRASAQIGREYAKVSGDYNPIHLSAASAKLFGFPRAIAHGMWLKARALAALEDHLPASNVQISVQFQKPVRLPADVTLSASAAGSHGEFRVEGQEGIVHMIGSWQPATD,failed
